Data on 1 substance can be found in paper PMC4981287.

Assay [1] addresses HiLyteFluor488-labeled amyloid-β(1-40) oligomers formed from the disaggregation of fibrils (UniProt P05067). In words: confocal two-color coincidence detection.
Assay [2] deals with HiLyteFluor488-labeled amyloid-β(1-40) fibrils (UniProt P05067). Kind of assay: confocal two-color coincidence detection.
The target is the same in assay [3].

HiLyteFluor488-labeled amyloid-β(1-40) oligomers formed from the disaggregation of fibrils, sequence (P05067 672-711): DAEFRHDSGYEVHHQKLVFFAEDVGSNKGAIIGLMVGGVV
HiLyteFluor488-labeled amyloid-β(1-40) fibrils, sequence (P05067 672-711): as above

As usually defined, the koff is a measure of how fast the partners let go of each other. A lower koff goes with slow dissociation. A word on the Kd: it is the free concentration of one partner at which half of the binding sites on the other are occupied at equilibrium, for simple one-to-one binding. On to “AlexaFluor647-labeled αB-crystallin (from UniProt P02511 1-175) (natural protein)”, for which, in assay [1], the half-time for dissociation came out at 17 h and the stoichiometry N (αB-crystallin molecule per Aβ monomer) worked out at 1. For the same substance, the koff in assay [2] turned out to be 4.4e-05 s⁻¹. In assay [3], this substance yielded a Kd of 1200 nM.
